The assay has as its target Bcl-xL, Q07817. The experiment in a line: peptide SPOT array, c-Myc-tagged receptor at 1 uM or 100 nM, anti-c-Myc-Cy3.
Sequence of Bcl-xL, Q07817 (Q07817 1-209): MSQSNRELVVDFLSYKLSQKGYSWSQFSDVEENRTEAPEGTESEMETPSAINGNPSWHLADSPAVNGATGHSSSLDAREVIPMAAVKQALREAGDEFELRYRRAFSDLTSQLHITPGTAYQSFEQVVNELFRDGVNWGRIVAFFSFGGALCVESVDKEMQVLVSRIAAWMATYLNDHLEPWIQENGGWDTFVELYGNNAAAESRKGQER
SAKLGKSSSLLTQTSEECNGILTEKM [ZNF396] displayed an SPOT signal as a fraction of Bim BH3's signal on the same receptor and array of 0.02.
Molecule SGEFREIGTVIDQIAETLWEQVFSKL [ATL2] returned an SPOT signal as a fraction of Bim BH3's signal on the same receptor and array of 0.03.
Then YGRLRPRARSLSKALTAINWLTKKFL [MYO15A], with 0.94.
The value for LAELQQRSDQLLDMSSTFNKTTQNLA [VAMP5] was 0.02.
Then LQETTLVANQLREAASRLKWTTNTGP [MAN2B1], with 0.06; and LEKQNNSASDLHEISNEILRIIERTG [GPR112], with 0.02.
On to AIKSQRMVQNLLSLARKICERVHRSP [ZBED4], for which the SPOT signal as a fraction of Bim BH3's signal on the same receptor and array is 0.26.
KSRLVQQSKADKELADELQERCQRPA [TRIM58] gave an SPOT signal as a fraction of Bim BH3's signal on the same receptor and array of 0.05.
Then KTRADSVANKLGSFSKTLGIKLKKNM [OTUD7A], with 0.87; and FPDARDMVRYLGDFADTLGLRVQYNT [FOXRED2], with 0.03.
Take YRDLPLAAVDLSTAGSQLLSNLDEDY [C15orf27]: the SPOT signal as a fraction of Bim BH3's signal on the same receptor and array is 0.02.
The value for RYRHGAPAEQLRHLLDMLTTKWATLQ [PLEKHH1] was 0.97.
In the case of SCMATVIHNPDKALGDQFYKEAIEHC [DPF3], the SPOT signal as a fraction of Bim BH3's signal on the same receptor and array was 0.02.
Take GFANHDVVEVLRNALQVVHLTLVRRK [INADL]: the SPOT signal as a fraction of Bim BH3's signal on the same receptor and array is 0.18.
Then YEHLRQFCLELNGLAVKLQSECHPDT [MOBKL3], with 0.03; and QEQLLTLASILREDGKVFDEKVYYTA [HEBP2], with 0.03; and YKGHREIARYDLEQGAQVNRRSAKGN [FEM1A], with 1.82.
For NKDGKSVSNRDRRLSDNCGGKVLSIT [KIAA0430], the SPOT signal as a fraction of Bim BH3's signal on the same receptor and array worked out at 0.22.
The molecule AHKARALARLLRQTALAAFSDFKRLQ [FAM43B] returned an SPOT signal as a fraction of Bim BH3's signal on the same receptor and array of 0.65.
As to QAEADHLGKELQSVSAKLQAQVEENE [GOLGA6L1], the SPOT signal as a fraction of Bim BH3's signal on the same receptor and array turned out to be 0.02.

Source of the values: PMC4072508, “Genome-Wide Prediction and Validation of Peptides That Bind Human Prosurvival Bcl-2 Proteins” (PLoS Computational Biology, 2014).
